Laboratory results published in the nanobody polyreactivity screen of Harvey et al. (2022).

Assay: yeast display, Sf9 membrane polyspecificity reagent, FACS + sequencing; frameworks hold sequencing errors
Procedure, shortened: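 Galactose induction of a Saccharomyces cerevisiae BJ5465 synthetic nanobody display library ran 36–48 hours. The cells were then stained for 1 hour at 4 °C with 10% biotinylated, detergent-solubilized Sf9 membrane reagent, pulled down on streptavidin microbeads and FACS-sorted into low and high (top ~1%) gates on expression and reagent-binding fluorescence. Labels for polyreactivity follow the gate of origin.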

Sequence	polyreactivity (PSR sort gate)
QVQLVESGGGLVQAGGSLRLSCAASGSIFDHYVMGWYRQSPGKERELVAAITSGDRTNYADSVKGRFTISRDNAKNTVYLQMNSLKPEDTAVYYCNADYQSYFYYTTWYYEYDYWGQGTQVTVSS	low polyreactivity
QVQLVESGGGLVQAGGSLRLSCAASGSIFDINAMGWYRPAPGKERELVADIRGGDSTNYADSVKGRFTISRDNATNTVYLQMNSLKPEDTAVYYSAARWRRSKYGVYPQRPYDYWGQGTQVTVSS	high polyreactivity
QVQLVESGGGLVQAGGSLRLSCAASGSIFDINVMGWYRQAPGKERELVAAITSGGRTNYADSVKGRFTISRDNAKNTVYLQMNSLKPEDTAVYYCAAVRHRQTYPKYNYWGQGTQVTVSS	high polyreactivity
QVQLVESGGGLVQAGGSLRLSCAASGSIFDIYAKGRSRQAPGKERELVAAISSGGSTTYADSVKGRFTISRDNAKNTVYFQMNCLTPEDTAVYYCATAYTPFAYLVTEMDYWGQGTQVTVLS	low polyreactivity
QVQLVESGGGLVQAGGSLRLSCAASGSIFDIYCMGWYRHAPGKERELVASISGGAGSTNYADSVKGRFTISRDNAKNTVYLQMNSLKPEDTAVYYCAAEVYVPDYFQHKFDVEYEYWGQGTQVTVSS	low polyreactivity
QVQLVESGGGLVQAGGSLRLSCAASGSIFDLYAMGWYRQAPGKERELVAAISSGATTNYADSVKGRFTISRDNAKNTVYLQMNSLKPEDTAVYYCAKYYRISSLYVIVSAYVYWGQGTQVTVSS	low polyreactivity
QVQLVESGGGLVQAGGSLRLSCAASGSIFDNYAMGCYRQAPRKERELVAAINFSDGDTYYGDSVKGRFTISRDNAKNTVYLQMNSLKPEDTAVYYCAAEVWYPPEYYDEYDYWGQGTQVTVSS	low polyreactivity
QVQLVESGGGLVQAGGSLRLSCAASGSIFDPYAMGWYRQAPGKERELVAAINGGSGSTFYADSVKGRFTISRDNAKNTVNLQMNSLKPEDTAVYYCAAKIWRYSPSYYPEPRGDYWGQGTQVTVSS	low polyreactivity
QVQLVESGGGLVQAGGSLRLSCAASGSIFDPYAMGWYRQAPGKERELVAAITASGSSTYYADSVKGRFTISRDNAKNTVYLQMNSLIPEDTAVYYCAADRANWEYLLSCLGYDYWGQGTQVTVSS	low polyreactivity
QVQLVESGGGLVQAGGSLRLSCAASGSIFDRYAMGWYRQAPGKERELVAAITGSGGSTYYADSVKGRFTISRDNAKNTVYLQMNSLKPEDTAVYYCNARARGAYVRYGYWGQGTQVTVSS	high polyreactivity
QVQLVESGGGLVQAGGSLRLSCAASGSIFDSNAKGWYRQAPGKERELVAAITGSGSTNYADSVKGRFTFSRDNAKNTVYLQMNSLKPEDTAVYYCNAQAPYTEFDYWGQGTQVTVSS	low polyreactivity
QVQLVESGGGLVQAGGSLRLSCAASGSIFDSNAMGWYRQAPGKERELVAAIDDSGATTYYADSVKGRFTISPDNAKNTVYLQLNSLKPEDTAVYYCAAETYTGSLAYYREYYYWGQGTQVTVSS	low polyreactivity
QVQLVESGGGLVQAGGSLRLSCAASGSIFDSNNMVWYRQAPGKERELVAGISTGGSTNYADSVKGRFTISRDNAKNTVYLQMNSLKPEDTAVYYCNADLGSSYDWGQGTQVTVSS	low polyreactivity
QVQLVESGGGLVQAGGSLRLSCAASGSIFDSYAMGWYRQAPGKERELVASISRRGGTTYYADSVKGRFTISRDNAKNTGYLQMNSLKPEDTAVYYCAKVGSLYQPSRYDYWGQGTQVTVTS	high polyreactivity
QVQLVESGGGLVQAGGSLRLSCAASGSIFDTYAMGWYRQAPGKEREVVAAITWSGSSTYYADSVKGRFTISRDNAKNTVYLQMNSLKPEDTAVYYCAAEVSGKYFLFDYWGQGTQVTVSS	high polyreactivity
QVQLVESGGGLVQAGGSLRLSCAASGSIFDVNAMGWYRQAPGKERELVAAISDSGGSTFYADSVKGRFTISRDNAKNTVYLQMNTLKPEDTGVYYCNTEDFFNVPEMDSWGQGTQVTVSS	low polyreactivity
QVQLVESGGGLVQAGGSLRLSCAASGSIFDVYAMGWYRQAPGKERELVAAINGGGSTYYADSVKGRFTISRDNAKNTVYLQMNSLKPEDTAVYYCAADRYYYAYRYYPSGYWGQGTQVTVSS	low polyreactivity
QVQLVESGGGLVQAGGSLRLSCAASGSIFDVYAMGWYRQAPGKERELVAAIRTRGGSTYYADSVKGRFTISRDNAKNTVYLQMNSLKPEDTAVYYCAAGGETVIPWFDDYYWGQGTQVTVSS	low polyreactivity
QVQLVESGGGLVQAGGSLRLSCAASGSIFDVYAMGWYRQAPGKERELVAGISRSGGSTYYADSVKGRFTISRDNAKNTVYLQMNSLKPEDTAVYYCAARYTYYRGRYDYWGQGTQVTVSS	low polyreactivity
QVQLVESGGGLVQAGGSLRLSCAASGSIFDVYAMGWYRQAPGKERELVATISNSAGSTYYADSVKGRFTISRDNAKKTVYLQMNSLKPEDTAVYYCAAVVLYFEEYDYWGQGTQVTVSS	low polyreactivity

Sequence	polyreactivity (PSR sort gate)
QVQLVESGGGLVQAGGSLRLSCAASGSIFDVYAMGWYRQAPGKERELVATMSNSAGSTYYADSVKGRFTISRDNAKYTVYLQMNSLKPEDTAVYYCAAVVVYFDEYDYWGQGTQVTVSS	low polyreactivity
QVQLVESGGGLVQAGGSLRLSCAASGSIFDVYTMGWDREAPGKERELVAAINTGGGSTYYADSVKGRFTISRDNAKNTVYLQMNSLKPEDTAVYYCAASVYHYGPLYYWGQGTQVTVSS	low polyreactivity
QVQLVESGGGLVQAGGSLRLSCAASGSIFDWYDMGWYRQAPRKEGELVAAISSGDSSYYADSVKGRFTISRDNAKNTVYFQIISLKPEDTAVYFCAAVTKLSGIRYNYWGQGTQLTVSS	low polyreactivity
QVQLVESGGGLVQAGGSLRLSCAASGSIFDYNAMGWYREAAGKEREFVASITYSGGSTNYADSVKGRFTISRDNAKNTVYLQMNSLKPEDTAVYYCSKTIGIVWIYYPGARYEDWGQGTQVTVSS	low polyreactivity
QVQLVESGGGLVQAGGSLRLSCAASGSIFDYNAMGWYRQATGKERELVAAISSDGSTYYADSVKGRFTISRDNAKNSVYLQMNSLKPEDTAVYYCAADSVYSWSDYWGQGTQVTVSS	low polyreactivity
QVQLVESGGGLVQAGGSLRLSCAASGSIFDYNCMGWYRQAPGKESELVATITLSTARTYYADSVKGRFTISRDNAKNTVYLQMNRLKPEDTAVYYCATRYPKFRRRNYWGQGTQVTVSS	high polyreactivity
QVQLVESGGGLVQAGGSLRLSCAASGSIFDYYTMGWYRQAPGKERELVASITQSGGSTYYADSVKGRFTISRDNAKNTVYLQMNSLIPEDTAVYYCAADFSIVKMDYWGQGTQVTVSS	low polyreactivity
QVQLVESGGGLVQAGGSLRLSCAASGSIFEAYAMGWYRQAPGKERELVAAITQSGGSTYYADSVKGRFTISRDNAKNTVYLQMNSLKPEDTAVYYCAADFKYRGPSGDYDYWGQGTQVTVSS	low polyreactivity
QVQLVESGGGLVQAGGSLRLSCAASGSIFEENAMGWYRQAPGKERELVAAITIGGRTNYADSVKGRFTISRDNAKNTVYLQMNSLKPEDTAVYYCAADLSSNKFWRFWTRYYYWGQGTQVTVSS	low polyreactivity
QVQLVESGGGLVQAGGSLRLSCAASGSIFEGNAMGWSRQAPGKERELVAAITGRGGSTYYADSVKGRFTISRDNAKNTVYLQMNSLKPEDTAVYYCAARVRRLSSIIYYYWGQGTQVTVSS	high polyreactivity
QVQLVESGGGLVQAGGSLRLSCAASGSIFEGNAMGWYRQAPGKERELVAAISRRGGRTYYADSVKGRFTISRDNAKNTVYLQMNSLKPEDTAVYYCNALYFRDGRYQTYSDKFDYWGQGTQVTVSS	high polyreactivity
QVQLVESGGGLVQAGGSLRLSCAASGSIFEHNSMGWYSQAPGKERELGAAITISGGGTYYADSVKGRFTISRDNAKNTVYLQMNSLKPEDTAVYYCNRDKPGLVFTSYNYSSSYDYWGPGTQVTVSS	low polyreactivity
QVQLVESGGGLVQAGGSLRLSCAASGSIFEKNAMGWYRQEPGKEWELFAAISSSGGRTNYADSVKGRFTISRDNAKNTVYLHMNSLKPEDTAVYYCAAYRRGHRYTGYEYWGQGTQVTVSS	high polyreactivity
QVQLVESGGGLVQAGGSLRLSCAASGSIFEKYAMGWYRQAPGKERELVAAISRGTNTKYADSVKGRFTISRDNAKNTVYLQMNSLKPEDTAVYNGAARYNTYRTRIYSMDYWGQGTQVTVSS	high polyreactivity
QVQLVESGGGLVQAGGSLRLSCAASGSIFELNAMGWYRQAPGKERELVAAITSSGSSTYYADSVKGRFTISRDNAKNTVYLQMNSLKPEDTAVYYCFRPHDYWGQGTQVTVTS	low polyreactivity
QVQLVESGGGLVQAGGSLRLSCAASGSIFEPNAMGWYRQAPGKERELVASITSGGTTYADSVKGRFTISRDNAKNTVYLQMNSLKPEDTAVYYCNARVKAFFDPSQYLYGHDYWGQGTQVTVSS	low polyreactivity
QVQLVESGGGLVQAGGSLRLSCAASGSIFEPYAMGWYRQAPGKERELVAAISSGTSTYYADSVKGRFTISRDNAKNTVYLQLNSLKPEDTAVYYCAAEEQIPWTNNAKYYYWGQGTQVTVSS	low polyreactivity
QVQLVESGGGLVQAGGSLRLSCAASGSIFESNAMGWYRQAPGKEREFVAAIDQNDGSTNYADSVKGRFTISRDNAKNTVYLQMNSLKPEDTAVYYCAKYWGYLGYYEFDYWGQGTQVTVSS	low polyreactivity
QVQLVESGGGLVQAGGSLRLSCAASGSIFESNGMGWYRPAPGKERELVASISNGDITYYADSVKGRFTISRDNAKNTVYLQMISVKPEYTAVYYCAATLYRNYVIFRYDYWGQGTQLTVSS	low polyreactivity
QVQLVESGGGLVQAGGSLRLSCAASGSIFEVYAMGWYRQAPGKERELVAAIDYSDGTTYYADSVKGRFTISRDNAKNTVYLQMNSLKPEDTAGYYCAADFPGQHYDYWGQGTQVTVSS	low polyreactivity
